Test [1] deals with T1, recombinant soluble human IL-6 receptor (SR344) (human, UniProt P08887 20-344, biotinylated (sites not given) where immobilized via streptavidin or used in phage ELISA).
T1 construct: also called soluble IL-6 receptor; membrane-type IL-6 receptor (when biotinylated and immobilized on the chip)
T1 sequence (looked up): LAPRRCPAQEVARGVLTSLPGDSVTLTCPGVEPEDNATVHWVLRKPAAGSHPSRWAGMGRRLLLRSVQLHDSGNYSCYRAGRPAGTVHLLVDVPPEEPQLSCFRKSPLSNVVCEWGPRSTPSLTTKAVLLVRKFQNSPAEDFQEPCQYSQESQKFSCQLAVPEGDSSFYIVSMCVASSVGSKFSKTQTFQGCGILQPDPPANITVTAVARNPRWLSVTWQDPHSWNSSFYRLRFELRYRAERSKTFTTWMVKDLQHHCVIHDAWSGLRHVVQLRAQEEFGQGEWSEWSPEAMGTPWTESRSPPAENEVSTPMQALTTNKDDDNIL
The test can be described thus: SPR Biacore T100, antibody on protein A/G chip, SR344 analyte, pH 7.4, 37 C. As for the experimental part: (§1) Kinetic analysis of antigen-antibody reactions at pH 7.4 and pH 5.8 was carried out using a Biacore T100™ surface plasmon resonance system (GE Healthcare) for the four types of antibodies prepared: WT-IgG1, H54/L28-IgG1, H170/L82-IgG1, and Fv4-IgG1 (buffer: 10 mM MES (pH 7.4 or pH 5.8), 150 mM NaCl, 0.05% Surfactant P20 (polyoxyethelene sorbitan monolaurate)). The antibodies were bound to a sensor chip on which recomb-protein A/G (Pierce) was immobilized by amine coupling, and SR344 adjusted to an appropriate concentration was injected therein as an analyte. The association with and dissociation from SR344 of each type of antibody were observed on a real-time basis. All the measurements were carried out at 37° C. Association rate constants kₐ (1/Ms) and dissociation rate constants kd (1/s) were calculated using Biacore T100™ Evaluation Software (GE Healthcare), and dissociation constants KD (M) were calculated based on those values (Table 17).
Background: SPR reads the build-up and loss of mass on a sensor chip optically.

Test [2] concerns the target T1, recombinant soluble human IL-6 receptor …. Description: SPR Biacore T100, antibody on protein A/G chip, SR344 analyte, pH 5.8, 37 C. As for the experimental part:
as §1

For test [3] the target is unchanged. Description: SPR Biacore T100, antibody on protein A/G chip, SR344 analyte, 37 C, ratio of pH 5.8 to pH 7.4. Here is the method:
as §1

The target is the same in test [4]. Description: SPR Biacore T100, biotinylated SR344 on streptavidin chip (model of membrane-type IL-6 receptor), antibody as analyte, bound at pH 7.4, dissociation at pH 7.4, 37 C. Here is the method:
(§2) Binding to the membrane-type IL-6 receptor was evaluated by evaluating binding to the IL-6 receptor immobilized on a sensor chip. SR344 was biotinylated in accordance with a method known among persons with ordinary skill in the art, and the biotinylated SR344 was immobilized on the sensor chip via streptavidin using the affinity between streptavidin and biotin. All the measurements were carried out at 37° C. The mobile phase buffer was 10 mM MES (pH 5.8), 150 mM NaCl and 0.05% TWEEN® 20 (polyoxyethelene sorbitan monolaurate).
(§3) The pH-dependently-binding clones were injected under the condition of pH 7.4 to allow them to bind to SR344, and then, the pH-dependent dissociation of each clone at the pH of the mobile phase, pH 5.8, was observed. The results are shown in FIG. 21 (results for Fv1-M71, Fv1-M73, Fv3-M71, and Fv3-M73 are shown in FIG. 21, while results for other clones are shown in FIGS. 17 and 19). Analyses were carried out in the same manner as in Example 10 and the pH dependencies of the dissociation rate constants of all of the eleven types of clones are shown in Table 12.

The target is the same in test [5]. The test can be described thus: SPR Biacore T100, biotinylated SR344 on streptavidin chip (model of membrane-type IL-6 receptor), antibody as analyte, 37 C. Here is the method: as §2, §3
Test [6] has the same target. The test can be described thus: SPR Biacore T100, biotinylated SR344 on streptavidin chip (model of membrane-type IL-6 receptor), antibody as analyte, bound at pH 7.4, dissociation at pH 5.8, 37 C. Here is the method: as §2, §3
Test [7] has the same target. The test can be described thus: SPR Biacore T100, antibody captured by anti-IgG gamma chain F(ab)2, SR344 analyte, pH 7.4, 37 C. Here is the method:
Kinetic analyses of antigen-antibody reactions at pH 7.4 were carried out on the four types of antibodies, i.e., the humanized PM1 antibody (wild type: WT), and […], H3pI/L73-IgG1, Fv2-IgG1, and Fv4-IgG1 constructed in Examples 2 and 10, by using a Biacore T100™ surface plasmon resonance system (GE Healthcare) (buffer: 10 mM MES (pH 7.4), 150 mM NaCl, 0.05% TWEEN® 20 (polyoxyethelene sorbitan monolaurate)). Each antibody was bound on a sensor chip on which an anti-IgG γ chain specific F(ab)₂ (Pierce) was immobilized by amine coupling, and then, SR344 adjusted to a concentration of 9.8 to 40 nM was injected thereto as an analyte. The association to and dissociation from SR344 were observed on a real-time basis for the pH-dependent-binding clones. All the measurements were carried out at 37° C. Association rate constants kₐ (1/Ms) and dissociation rate constants kd (1/s) were calculated using Biacore T100™ Evaluation Software (GE Healthcare), and dissociation constants KD (M) were calculated on the basis of those values (Table 7).
The association to and dissociation from SR344 were observed on a real-time basis using the same method as Example 10 for the eleven types of antibodies, humanized PM1 antibody (wild type: WT) and H3pI/L73-IgG1, Fv1-M71, Fv1-M73, Fv2-IgG1, Fv3-M71, Fv3-M73, Fv4-IgG1, Fv4-IgG2, Fv4-M58, and Fv4-M73, constructed as described above. The association rate constants kₐ (1/Ms) and dissociation rate constants kd. (1/s) were calculated by analysis in the same manner, and the dissociation constants KD (M) were calculated on the basis of those values (Table 11).

Numbering of substitutions follows the chain as printed.

B1: H54/L28-IgG1 (antibody, V domains shown)
VH: QVQLQESGPGLVKPSETLSLTCAVSGYSISDDQAWSWVRQPPGEGLEWIGYISYSGITNYNPSLKGRVTISRDTSKNQFSLKLSSVTAADTAAYYCARSLARTTAMDYWGEGTLVTVSS
VL: DIQMTQSPSSLSASVGDSVTITCQASQDISSYLNWYQQKPGKAPELLIYYGSELHSGVPSRFSGSGSGTDFTFTISSLEAEDAATYYCQQGNSLPYTFGQGTKVEIE
notes: IgG1
Usually Kd stands for the constant that tells how readily two partners part at equilibrium. By koff is commonly meant the first-order rate constant of dissociation. The kon is the second-order rate constant of association. Regarding B1, in test [1], the Kd was found to be 1.7 nM, the koff worked out at 0.0014 s⁻¹ and the association rate constant (kon) turned out to be 830000 M⁻¹ s⁻¹. In test [2], the Kd came to 1.1 nM, the koff stood at 0.0027 s⁻¹ and the kon stood at 2.4e+06 M⁻¹ s⁻¹. For the same molecule, in test [3], the “KD (pH 5.8)/KD (pH 7.4)” value was 0.7 and the “kd (pH 5.8)/kd (pH 7.4)” value turned out to be 2.

B2: Fv3-M73 (antibody)
heavy: QVQLQESGPGLVKPSETLSLTCAVSGHSISHDHAWSWVRQPPGEGLEWIGFISYSGITNYNPTLQGRVTISRDNSKNTLYLQMNSLRAEDTAVYYCARSLARTTAMDYWGEGTLVTVSSASTKGPSVFPLAPSSKSTSGGTAALGCLVKDYFPEPVTVSWNSGALTSGVHTFPAVLQSSGLYSLSSVVTVPSSNFGTQTYTCNVDHKPSNTKVDKTVERKSCVECPPCPAPPVAGPSVFLFPPKPKDTLMISRTPEVTCVVVDVSQEDPEVQFNWYVDGVEVHNAKTKPREEQFNSTFRVVSVLTVVHQDWLNGKEYKCKVSNKGLPAPIEKTISKTKGQPREPQVYTLPPSQEEMTKNQVSLTCLVKGFYPSDIAVEWESNGQPENNYKTTPPMLDSDGSFFLYSKLTVDKSRWQEGNVFSCSVMHEALHAHYTQKSLSLSP
light: DIQMTQSPSSLSASVGDSVTITCQASRDISSHLNWYQQKPGKAPELLIYYGSHLLSGVPSRFSGSGSGTDFTFTISSLEAEDAATYYCGQGNRLPYTFGQGTKVEIERTVAAPSVFIFPPSDEQLKSGTASVVCLLNNFYPREAKVQWKVDNALQSGNSQESVTEQDSKDSTYSLSSTLTLSKADYEKHKVYACEVTHQGLSSPVTKSFNRGEC
As for B2, the koff in test [4] stood at 0.00049 s⁻¹. Moreover, in test [5], the “kd (pH 5.8)/kd (pH 7.4)” value is 10.9. Moreover, the koff in test [6] was determined as 0.0053 s⁻¹. Besides, in test [7], the Kd was 1 nM, the koff was 0.00087 s⁻¹ and the kon was 850000 M⁻¹ s⁻¹.

B3: Fv3-M71 (antibody, human IgG2, kappa)
heavy: QVQLQESGPGLVKPSETLSLTCAVSGHSISHDHAWSWVRQPPGEGLEWIGFISYSGITNYNPTLQGRVTISRDNSKNTLYLQMNSLRAEDTAVYYCARSLARTTAMDYWGEGTLVTVSSASTKGPSVFPLAPCSRSTSESTAALGCLVKDYFPEPVTVSWNSGALTSGVHTFPAVLQSSGLYSLSSVVTVPSSNFGTQTYTCNVDHKPSNTKVDKTVERKCCVECPPCPAPPVAGPSVFLFPPKPKDTLMISRTPEVTCVVVDVSHEDPEVQFNWYVDGVEVHNAKTKPREEQFNSTFRVVSVLTVVHQDWLNGKEYKCKVSNKGLPAPIEKTISKTKGQPREPQVYTLPPSREEMTKNQVSLTCLVKGFYPSDIAVEWESNGQPENNYKTTPPMLDSDGSFFLYSKLTVDKSRWQQGNVFSCSVMHEALHAHYTQKSLSLSPGK
light: B2 light
For B3, the koff in test [4] came out at 0.00091 s⁻¹. Also, the “kd (pH 5.8)/kd (pH 7.4)” value in test [5] was found to be 10.7. Also, the koff in test [6] came to 0.0097 s⁻¹. Besides, in test [7], the Kd is 1.1 nM, the koff turned out to be 0.00082 s⁻¹ and the kon was 780000 M⁻¹ s⁻¹.

B4: Fv1-M73 (antibody)
heavy: QVQLQESGPGLVKPSETLSLTCAVSGYSISHDHAWSWVRQPPGEGLEWIGHISYSGITNYNPHLQDRVTISRDTSKNQFSLKLSSVTAADTAVYYCARFLARITAHDHWGEGTLVTVSSASTKGPSVFPLAPSSKSTSGGTAALGCLVKDYFPEPVTVSWNSGALTSGVHTFPAVLQSSGLYSLSSVVTVPSSNFGTQTYTCNVDHKPSNTKVDKTVERKSCVECPPCPAPPVAGPSVFLFPPKPKDTLMISRTPEVTCVVVDVSQEDPEVQFNWYVDGVEVHNAKTKPREEQFNSTFRVVSVLTVVHQDWLNGKEYKCKVSNKGLPAPIEKTISKTKGQPREPQVYTLPPSQEEMTKNQVSLTCLVKGFYPSDIAVEWESNGQPENNYKTTPPMLDSDGSFFLYSKLTVDKSRWQEGNVFSCSVMHEALHAHYTQKSLSLSP
light: B2 light with L55E
On to B4, for which the koff in test [4] was determined as 0.00037 s⁻¹. The “kd (pH 5.8)/kd (pH 7.4)” value in test [5] amounted to 8.8. In test [6], the dissociation rate constant (koff) was determined as 0.0032 s⁻¹. Besides, in test [7], the Kd stood at 0.91 nM, the koff came out at 0.00055 s⁻¹ and the on-rate (kon) was determined as 610000 M⁻¹ s⁻¹.

B5: Fv1-M71 (antibody, human IgG2, kappa)
heavy: QVQLQESGPGLVKPSETLSLTCAVSGYSISHDHAWSWVRQPPGEGLEWIGHISYSGITNYNPHLQDRVTISRDTSKNQFSLKLSSVTAADTAVYYCARFLARITAHDHWGEGTLVTVSSASTKGPSVFPLAPCSRSTSESTAALGCLVKDYFPEPVTVSWNSGALTSGVHTFPAVLQSSGLYSLSSVVTVPSSNFGTQTYTCNVDHKPSNTKVDKTVERKCCVECPPCPAPPVAGPSVFLFPPKPKDTLMISRTPEVTCVVVDVSHEDPEVQFNWYVDGVEVHNAKTKPREEQFNSTFRVVSVLTVVHQDWLNGKEYKCKVSNKGLPAPIEKTISKTKGQPREPQVYTLPPSREEMTKNQVSLTCLVKGFYPSDIAVEWESNGQPENNYKTTPPMLDSDGSFFLYSKLTVDKSRWQQGNVFSCSVMHEALHAHYTQKSLSLSPGK
light: B2 light with L55E
Consider B5, for which the off-rate constant (koff) in test [4] was 0.00061 s⁻¹; in test [6], 0.0069 s⁻¹; in test [7], 0.00054 s⁻¹. In addition, in test [5], the “kd (pH 5.8)/kd (pH 7.4)” value came to 11.3. Also, the Kd in test [7] is 0.97 nM. In test [7], the kon was determined as 550000 M⁻¹ s⁻¹.

These data come from patent US20180282719A1 (published 2018).
